Measured values from patent US20170000909.

Assays:
[1] = molecular target: T1, M1 micelle of fluorescein labelled PPA-1 (not fully specified)
T1 chain: GPLGLAGKWAAAAKAAAAK

M4 micelle = molecular target: T2, M4 micelle
T2 chain: GPLGLAGKWAAAAKAAAAK

Peptide 1 = molecular target: T3, Peptide 1
T3 chain: GPLGLAGKWAAAAKAAAAK

B1: matrix-metalloproteinase 9 (protein)
chain: MRTPRCGVPDLGRFQTFEGDLKWHHHNITYWIQNYSEDLPRAVIDDAFARAFALWSAVTPLTFTRVYSRDADIVIQFGVAEHGDGYPFDGKDGLLAHAFPPGPGIQGDAHFDDDELWSLGKGVVVPTRFGNADGAACHFPFIFEGRSYSACTTDGRSDGLPWCSTTANYDTDDRFGFCPSERLYTQDGNADGKPCQFPFIFQGQSYSACTTDGRSDGYRWCATTANYDRDKLFGFCPTRADSTVMGGNSAGELCVFPFTFLGKEYSTCTSEGRGDGRLWCATTSNFDSDKKWGFCPDQGYSLFLVAAHEFGHALGLDHSSVPEALMYPMYRFTEGPPLHKDDVNGIRHLYGPRPEPEPRPPTTTTPQPTAPPTVCPTGPPTVHPSERPTAGPTGPPSAGPTGPPTAGPSTATTVPLSPVDDACNVNIFDAIAEIGNQLYLFKDGKYWRFSEGRGSRPQGPFLIADKWPALPRKLDSVFEERLSKKLFFFSGRQVWVYTGASVLGPRRLDKLGLGADVAQVTGALRSGRGKMLLFSGRRLWRFDVKAQMVDPRSASEVDRMFPGVPLDTHDVFQYREKAYFCQDRFYWRVSSRSELNQVDQVGYVTYDILQCPED
MMP-9 cleavage efficiency (RP-HPLC after 24 hrs) [1]: estimated to be 41%
Michaelis-Menten kinetics (Kcat and KM) from fluorescein signal increase upon cleavage of the Dabcyl label (M4 micelle): this substrate for MMP-9 is comparable to standard substrate
MMP-9 cleavage efficiency (RP-HPLC after 24 hrs) (Peptide 1): quantitative
